Measured values from WO2009147196A1.

Tests used:
EYFP-Rev (HIV-1) [1] = molecular target: EYFP-Rev (HIV-1) (UniProt P04618); test: FRET Rev-multimerization assay, purified proteins mixed
EYFP-Rev (HIV-1) [2] = molecular target: EYFP-Rev (HIV-1) (UniProt P04618); test: FRET Rev-multimerization assay, negative control ECFP + EYFP-Rev

Sequence of EYFP-Rev (HIV-1) (P04618 whole entry): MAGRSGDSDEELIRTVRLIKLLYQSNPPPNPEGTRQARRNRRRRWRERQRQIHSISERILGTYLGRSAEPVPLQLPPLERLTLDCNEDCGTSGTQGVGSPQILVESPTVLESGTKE

ECFP-Rev (from UniProt P04618 1-116)
FRET efficiency (EYFP-Rev (HIV-1) [1]): 20 to 35%

free ECFP
FRET efficiency (EYFP-Rev (HIV-1) [2]): 1.6%
